B1: Hammerhead Ribozyme (parent)
chain: ACCGGAUGUGCUUUCCGGUCUGAUGAGUCCGUGAGGACGAAACAG

Variants of: B1
Experiment: self-cleavage, relative activity (ratio to wild type); higher = more cleavage; co-transcriptional

Compared with ACCGCAUGUGCUUUCCGGUCUGAUGAUUCCGUGAGGACGAAACAG [G5C G27U], ACCGCAUGUGCUUUCCGGUCUGAUGACUCCGUGAGGACGAAACAG [G5C G27C] is higher in self-cleavage: 0.321 for the first, 0.354 for the second.

Compared with ACCGCAUGUGCUUUCCGGUCUGAUGAAUCCGUGAGGACGAAACAG [G5C G27A], ACCGCAUGUGCUUUCCGGUCUGAUGAGUCCGUGAAGACGAAACAG [G5C G35A] is higher in self-cleavage: 0.351 for the first, 0.362 for the second.

Compared with ACCGCAUGUGCUUUCCGGUCUGAUGAGUCCGUGACGACGAAACAG [G5C G35C], ACCGCAUGUGCUUUCCGGUCUGAUGAGUCCGUGAUGACGAAACAG [G5C G35U] is higher in self-cleavage: 0.324 for the first, 0.376 for the second.

Going from ACCGCAUGUGCUUUCCGGUCUGGUGAGUCCGUGAGGACGAAACAG [G5C A23G] to ACCGCAUGUGCUUUCCGGUCUGUUGAGUCCGUGAGGACGAAACAG [G5C A23U], the self-cleavage falls from 0.324 to 0.221.

Compared with ACCGCAUGUGCUUUCCGGUCUGCUGAGUCCGUGAGGACGAAACAG [G5C A23C], ACCGCAUGUGCUUUCCGGUCUGAUGAGUCCGUGAGCACGAAACAG [G5C G36C] is higher in self-cleavage: 0.326 for the first, 0.357 for the second.

Compared with ACCGCAUGUGCUUUCCGGUCUGAUGAGUCCGUGAGAACGAAACAG [G5C G36A], ACCGCAUGUGCUUUCCGGUCUGAUGAGUCCGUGAGUACGAAACAG [G5C G36U] is lower in self-cleavage: 0.35 for the first, 0.33 for the second.

Compared with ACCGAAUGUGCUUUCCGGUCUGAUGAGACCGUGAGGACGAAACAG [G5A U28A], ACCGAAUGUGCUUUCCGGUCUGAUGAGCCCGUGAGGACGAAACAG [G5A U28C] is higher in self-cleavage: 0.364 for the first, 0.654 for the second.

First: ACCGAAUGUGCUUUCCGGUCUGAUGAGGCCGUGAGGACGAAACAG [G5A U28G]
Second: ACCGAAUGUGCUUUCCGGUCUGAUGAGUCCGAGAGGACGAAACAG [G5A U32A]
The self-cleavage of the first is lower: 0.377 for the first, 1.32 for the second.

Compared with ACCGAAUGUGCUUUCCGGUCUGAUGAGUCCGGGAGGACGAAACAG [G5A U32G], ACCGAAUGUGCUUUCCGGUCUGAUGAGUCCGCGAGGACGAAACAG [G5A U32C] is higher in self-cleavage: 0.533 for the first, 1.15 for the second.

First: ACCGAAUGUGCUCUCCGGUCUGAUGAGUCCGUGAGGACGAAACAG [G5A U13C]
Second: ACCGAAUGUGCUAUCCGGUCUGAUGAGUCCGUGAGGACGAAACAG [G5A U13A]
The self-cleavage of the first is lower: 1.6 for the first, 1.68 for the second.

Compared with ACCGAAUGUGCUGUCCGGUCUGAUGAGUCCGUGAGGACGAAACAG [G5A U13G], ACCGCAUGUUCUUUCCGGUCUGAUGAGUCCGUGAGGACGAAACAG [G5C G10U] is lower in self-cleavage: 1.72 for the first, 0.64 for the second.

Compared with ACCGCAUGUACUUUCCGGUCUGAUGAGUCCGUGAGGACGAAACAG [G5C G10A], ACCGCAUGUCCUUUCCGGUCUGAUGAGUCCGUGAGGACGAAACAG [G5C G10C] is lower in self-cleavage: 0.638 for the first, 0.441 for the second.

Going from ACCGCAUGUGCUUUCCGGUCUGAUGAGUCCGUGAGGACGAAUCAG [G5C A42U] to ACCGCAUGUGCUUUCCGGUCUGAUGAGUCCGUGAGGACGAAGCAG [G5C A42G], the self-cleavage falls from 0.328 to 0.24.

Going from ACCGCAUGUGCUUUCCGGUCUGAUGAGUCCGUGAGGACGAACCAG [G5C A42C] to ACCGCAUGUGCUUUCCGGUCUGAUGGGUCCGUGAGGACGAAACAG [G5C A26G], the self-cleavage falls from 0.356 to 0.267.

Going from ACCGCAUGUGCUUUCCGGUCUGAUGCGUCCGUGAGGACGAAACAG [G5C A26C] to ACCGCAUGUGCUUUCCGGUCUGAUGUGUCCGUGAGGACGAAACAG [G5C A26U], the self-cleavage rises from 0.282 to 0.339.

Compared with ACCGCAUGUGCUUUCCGCUCUGAUGAGUCCGUGAGGACGAAACAG [G5C G18C], ACCGCAUGUGCUUUCCGAUCUGAUGAGUCCGUGAGGACGAAACAG [G5C G18A] is lower in self-cleavage: 0.34 for the first, 0.293 for the second.

Compared with ACCGCAUGUGCUUUCCGUUCUGAUGAGUCCGUGAGGACGAAACAG [G5C G18U], ACCGCAUGUGCUUUCCGGUCUGAUGAGUCCGUGAGGUCGAAACAG [G5C A37U] is lower in self-cleavage: 0.307 for the first, 0.238 for the second.

Going from ACCGCAUGUGCUUUCCGGUCUGAUGAGUCCGUGAGGCCGAAACAG [G5C A37C] to ACCGCAUGUGCUUUCCGGUCUGAUGAGUCCGUGAGGGCGAAACAG [G5C A37G], the self-cleavage rises from 0.259 to 0.44.

Compared with ACCGCACGUGCUUUCCGGUCUGAUGAGUCCGUGAGGACGAAACAG [G5C U7C], ACCGCAAGUGCUUUCCGGUCUGAUGAGUCCGUGAGGACGAAACAG [G5C U7A] is higher in self-cleavage: 0.72 for the first, 0.874 for the second.

Going from ACCGCAUGUGCUUUCCGGUCUGAUGAGUCCGUGAGGACGAAAGAG [G5C C43G] to ACCGCAUGUGCUUUCCGGUCUGAUGAGUCCGUGAGGACGAAAUAG [G5C C43U], the self-cleavage falls from 0.33 to 0.316.

Compared with ACCGCAUGUGCUUUCCGGUCUGAUGAGUCCGUGAGGACGAAAAAG [G5C C43A], ACCGAAUGUGCUUUCCGGGCUGAUGAGUCCGUGAGGACGAAACAG [G5A U19G] is higher in self-cleavage: 0.294 for the first, 0.373 for the second.

Compared with ACCGAAUGUGCUUUCCGGACUGAUGAGUCCGUGAGGACGAAACAG [G5A U19A], ACCGAAUGUGCUUUCCGGCCUGAUGAGUCCGUGAGGACGAAACAG [G5A U19C] is higher in self-cleavage: 0.382 for the first, 0.565 for the second.

Compared with ACCGCAUGUGCUUUCAGGUCUGAUGAGUCCGUGAGGACGAAACAG [G5C C16A], ACCGCAUGUGCUUUCUGGUCUGAUGAGUCCGUGAGGACGAAACAG [G5C C16U] is lower in self-cleavage: 1.19 for the first, 0.883 for the second.

Going from ACCGCAUGUGCUUUCGGGUCUGAUGAGUCCGUGAGGACGAAACAG [G5C C16G] to ACCGCAUGUGCUUUCCGGUCUGAUGAGUCCGUGAGGACGCAACAG [G5C A40C], the self-cleavage falls from 0.716 to 0.325.

Going from ACCGCAUGUGCUUUCCGGUCUGAUGAGUCCGUGAGGACGUAACAG [G5C A40U] to ACCGCAUGUGCUUUCCGGUCUGAUGAGUCCGUGAGGACGGAACAG [G5C A40G], the self-cleavage rises from 0.23 to 0.237.

First: ACCGCAUGUGCUUUCCGGUCUGAUGAGUCCGUGAGGACGAAACAG [G5C]
Second: ACCGAAUGUGCUUUCCGGUCAGAUGAGUCCGUGAGGACGAAACAG [G5A U21A]
The self-cleavage of the first is higher: 0.669 for the first, 0.57 for the second.

First: ACCGAAUGUGCUUUCCGGUCCGAUGAGUCCGUGAGGACGAAACAG [G5A U21C]
Second: ACCGAAUGUGCUUUCCGGUCGGAUGAGUCCGUGAGGACGAAACAG [G5A U21G]
The self-cleavage of the first is higher: 0.977 for the first, 0.378 for the second.

Going from ACCGCAUGUGCUUUCCGGUCUGAUGAGUCCGUGAGGACGAAACCG [G5C A44C] to ACCGCAUGUGCUUUCCGGUCUGAUGAGUCCGUGAGGACGAAACUG [G5C A44U], the self-cleavage rises from 0.345 to 0.358.

ACCGCAUGUGCUUUCCGGUCUGAUGAGUCCGUGAGGACGAAACGG [G5C A44G] showed a self-cleavage of 0.831.
